Results as given in a protein production outcome set (Wang et al. 2014).

Assay: label from the status in PepcDB records

| Sequence | protein production |
| --- | --- |
| MWVKPLREASQGKKEEEIHIKTSSSSSARSLAPLLVLKLIRSLSSSSARLQASQLVLKLLCSSSSSSACPQALQLALKLLCWSSSSSTGPQAPQLVFKLSSSSLSSARLQAPPLNDHLLA | failed |
| MWVWNMVEIKIVFGSSENMEEIPDNSVHLVVTSPPYYNAPFDFPGLFSSYEEYLNLLRKVGKELMRVLQPGRYACFVTQDVRIEGKLYPIVSDLIHIMVHELGFEYQDKIIWRKPEGYIRISRRSGVLIQHPYPMYYYPDNIYEEVVIFKKPGKFDRSAVPPEIREKSKISISKFQAEKWYLSVWDIKNVLPHEKWSKYTAPFPEELAERLIRLYSYVGETVLDPFLGSGTTCVVSRKLHRNCIGYEIDLELREIIEERLG | failed |
| MYEFNLVLLLLQQMCVFLVIAWLMSKTRLFIPLMQVTVRLPHKLLCYVTFSIFCIMGTYFGLHIEDSIANTRAIGAVMSGLLGGPVVGGLVGLTGGLHRYSMGGMTALSCMISTIVEGLLGGLVHSVLIRRGRPDKVFSPLTAGAITCVAELVQMLIILLIARPFDDALHLVSNIAAPMMVTNTVGAALFMRILLDKRAMFEKYTSAFSATALKVAASTEGILRQGFNEVNSMKVAQVLYQELDIGAVAITDREKLLAFTGIGDDHHLPGKPISSGYTLKAIETGEVVYADGNEVPYRCSLHPQCKLGSTLVIPLRGENQRVMGTIKLYEAKNRLFSSINRTLGEGIAQLLSAQILAGQYERQKALLTQSEIKLLHAQVNPHFLFNALNTIKAVIRRDSEQASQLVQYLSTFFRKNLKRPSEIVTLADEIEHVNAYLQIEKARFQSRLQVQLDVPSTLSRQKLPAFTLQPIVENAIKHGTSQLLDTGNVAIRARREGQHLMLDIEDNAGLYQPSAGSSGLGMSLVDKRLREHFGDDYGISVACEPDCFTRITLRLPLEEDA | failed |
| MYFDSHLHSEGLGFSELVKLKENGIKEVCSLAFFPVKPKYPQTMIDVFRKLTEFEPLRCEAAGVKMHPAVGIHPRCIPPDYEFVLGYLEEGEWVAFGEIGLELVTDEEIEVLKSQLELAKRMDVPCIIHTPRGNKLKATRKTLEILESLDFPADLAVIDHVNFETLDMVLETEYWIGLTVQPGKLSAEDAARIVAEHGPERFMLNSDAGYRDVEITTVAEAAVKIEEAVGREEMEKVARENARKFLRVLELEHHHHHH | failed |
| MYFEIYKDAKGEYRWRLKAANHEIIAQGEGYTSKQNCQHAVDLLKSTTAATPVKEVLEHHHHHH | not failed |
| MYFLKKIVNLFSSKIESEDNNVKKDDLTQPRKQSPEARKRRNRRIIFWLIILLIIGTIIGVIIYFSVRKEYDNVIVKSAQTEVVNNKKVLYLNTIRPNSTQITRYTIDEDQLLTARVNILNNTNFQIISNASSLGLSRISFNIVREGVEKFKLGETNIYAPISGNTNNQWNWLTSIITQNAGIPSSGFNPQVIISPLISIIFFIIFLYIILRVSKAQSDSLLGTNKANAKLTKSGVRFSDVAGIAEVKEELIEIVDFLKEPKKYVAAGARIPKGVMLYGPPGTGKTLIAKAVAGEANVPFFQTTGSSFEDTFVGVGARRVRELFEKARKSAPAIIFIDEIDSVAKKRGNSLTAVQDQTINQLLSELDGFDTSSGVIVMAATNRLDTLDDAILRPGRFDRQISVNLPDILEREQILRIHSRNKNLSAKVSLEDIARRTAGFSGAQLENVLNEAALLSVRDKATSIHMNHLDEAIDRVIAGPSRPNKVISEREREQVSYHEAGHALIGLYSPGADVVQKITIVARGRAAGYTLQTPERNENILQNKTELISRVRTALGGRAAEELIYGPNEITTGAANDFYKITNIVRAMVASFGMTDVGLTQYIATEGVDNPYRNSYSEQTALAIDIEIEKIIQREYKIVKEMINEHREELELIVQTLLELETILKPQIDYIHQYKQLPPEVIANKNKREASQKQANSSVEEAKVVDDEESIKDKEKDQKSN | failed |
| MYGGAGLYKFDKLSDWMVYLDRLSKDKPVEEGWTATVFLCIRQSDKRMIGICNVRHHLNSLGLLNVSGHIGYSIRPDERKKGYAKVQLRLALLEAKKLGIDKVLVTCADWNIGSERTILANGGVYEDSRLDESTGNMMKRYWINVTERNSI | failed |
| MYHGMNPSNGDGFLEQQQQQQQPQSPQRLLAVILWFQLALCFGPAQLTGGFDDLQVCADPGIPENGFRTPSGGVFFEGSVARFHCQDGFKLKGATKRLCLKHFNGTLGWIPSDNSICVQEDCRIPQIEDAEIHNKTYRHGEKLIITCHEGFKIRYPDLHNMVSLCRDDGTWNNLPICQGCLRPLASSNGYVNISELQTSFPVGTVISYRCFPGFKLDGSAYLECLQNLIWSSSPPRCLALEAQVCPLPPMVSHGDFVCHPRPCERYNHGTVVEFYCDPGYSLTSDYKYITCQYGEWFPSYQVYCIKSEQTWPSTHETLLTTWKIVAFTATSVLLVLLLVILARMFQTKFKAHFPPRGPPRSSSSDPDFVVVDGVPVMLPSYDEAVSGGLSALGPGYMASVGQGCPLPVDDQSPPAYPGSGDTDTGPGESETCDSVSGSSELLQSLYSPPRCQESTHPASDNPDIIASTAEEVASTSPGIDIADEIPLMEEDP | failed |
| MYIKKIVIGLLFVTLVGCSSSPDTEETKEKILIKTNNYSDLIIFYKNQLKVSEDPYTREKLAQAYLDSGDPDSALFAIQYLNEDDDSRSISSFLIEANAQLECGMLEPALDTVNRVYKLNEDNPEIENLLGVIYASKRDLDKSRHYFNLARKHLYSDITIKNNLAILNIIEGKYDQAVKLLLPIYMSNKNDALVQANLMLAMAKAGDLEFMEKVLSPQFSKQEIERRYSILKNTESHRDDTNLFGAD | failed |
| MYINHAAEMLLCNSSVVVRCRATRGVSESLARPGGVTMHKRLTEETHHSAGSPEQPEIAGLHRELAEARQALETLYAALDNVDAGLLILNEELRAVYSNPVLHVMFRANSAEEIRQNRPLYAEMLAASAQAVAVNLEDYVSRRLAWVQSGDPKPMDLAMTDGTALRCHLAVLPGGGRMLIYSDVTDIVRNAEELERLATTDGMTGVYNRRHFLTLADREWSRARRYERPMSFLMIDIDYFKAINDGFGHQVGDEMIVHLARLARDCKRDCDVLARLGGEEFALLLPETDLAQAEVVAERLRREVAGNALVVASHAIPATVSIGVATALPGMKDVSDLMKAADQALYDAKHAGRNRVICRACHDPAPTLVPALTPRCEAATMR | failed |
| MYIPKYFKVTNAEEIWNFVQENSFGTVVTTEQGKPIATHLPLGFNKKDDHYYITGHFAYGNPQWRTFEACEDVLVMFQGPHAYISSSWYSRENVPTWNYQAVHMYGKASMLEKDELAEELTIMLEQKTPTQAFSVLWDKLSPKLLESELKGIVGFKIKVEDIQAAYKLSQN | failed |
| MYIVIAGGGEMGGELARALEKTHDVVVIDRNPQARERFASWDVKVVVGGATDPDTLREAGVDRADLFVASTDSDEINLLASLLAKGLGAKEAFCFVGKGGYVEVLTDPRTAEILGTRIDRVLWPQRAMAREIVEVILVPWAVDTEVLAGGRLRFVEYRVKEGGEYVHRLLSGEKWPEGVLLAGVVREGTFLSFAHPEFPELILEPGDKLLFVATQKAFSELAAYFTEGPGVRRVMVIGGGNVGFMVAQGLLKRRVEVVIVERNAERCQWLSEELPGALVIQGDGTDIELLEAEGMAEADAVVAVTDHDEKNLLASLLAKQMGVRKVITRVSRSETRRLFEQVGIDLALTPRQAAVREVLDWIGPENVEHIATLEESIEVLEVLVSEGAAPKALRDLVRPDAVPVALERDHRIFLYEEGLGLLPGDRLYLVAAREVADEVLAPFFPE | failed |
| MYIVNSNKSRGSSVERYIVSRLRDKGFAVIRAPASGSKRKDHVPDIIALKSGVIILIEVKSRKNGQKIYIEKEQAEGIREFAKRSGGELFLGVKLPKMLRFIKFDMLRQTEGGNYAIDLETVEKGMELEDLVRYVESKISRTLDSFL | not failed |
| MYIVNSYTLAIIFCFITMICWGSWGNTQKLASKNWRYELYYWDYTIGILLFALLLVFTLGSFGDSGRGFLEDIQQVEAAYIASALIGGAIFNASNILLSASVSIAGMAVAFPLGVGLALVLGVFINYFSSPKGDPFWLFTGVVLIVIAIICNGIAAGKNQKAGTNNSKKGIILAAIAGILMSFFYRFVAAAMDLNNFESPTTGMATPYTAFFIFAIGIFLSNFLFNTLVMKRPFVGLPVTYKEYFAGKASTHMVGILGGCIWGLGTALSYIAAGKAGAAISYALGQGAPMIAALWGVFIWKEFTGSSKATNRLLGVMFILFILGLTFIVISGGS | failed |
| MYKLDLPTLMDAFHKVFHVSMLRKCITHQENVISEPPPDLLENMMIVGMLIPNLLGVSSEMVGR | failed |
| MYKLVLIRHGESTWNKENRFTGWVDVDLTEQGNREARQAGQLLKEAGYTFDIAYTSVLKRAIRTLWHVQDQMDLMYVPVVHSWRLNERHYGALSGLNKAETAAKYGDEQVLVWRRSYDTPPPALEPGDERAPYADPRYAKVPREQLPLTECLKDTVARVLPLWNESIAPAVKAGKQVLIAAHGNSLRALIKYLDGISDADIVGLNIPNGVPLVYELDESLTPIRHYYLGDQEAIAKAQAAVAQQGKSAA | not failed |
| MYLKARQDELTESTIQSQEYRLEAFEQFCREEGIENLNDLSGRDLYAYRVWRREGNGKGRDEIEPITLRGQLATVRSFLRFAAEVDAVPEDLRTKVPLPTISNAGEVSASTLDPERADVILDYLQMYKYASRVHVIALLLWHTGARMGAIRGLDIDDCELEQDNPGIQFVHRPQTDTPLKNGEKGQRWNAISDHVANVLQDYIDGPREPVFDEHGRRPLVTTPQGRASTSTFRTTMYRVTRPCWRGAECPHDRDPEECEATSNRKASTCPSARSPHDVRSGRVTAYRREDVPRRVVSDRLNASDQILDKHYDRRGEREKSEQRRDYLPEV | failed |
| MYLKRSDGPSPGTLSLAARLTVLSTLATTGVLLFAIVFQFLALVSDLEFEDNDFIIDKIRVIEAIIVRYPEDRVHLEQEVQWEGSMREDSRYLVRIADARKNIIMETRGMDRIAPPAMFPRPARDTHAIGRGKKLKTPEGRVYLVNAAWTDGGRAPDSRQIQVALDVTEEEEMLEGYKQKMAFVFLAGLFLSAGLNVVVVRRGLRPLVQLTETAGRIDVTTLHERIDARVWPRELARFAAAFDAMLTRLESSFERLESSSANLAHEIRTPLNILRGEAEVTLSRARSPEEYRRVIESSLEEYERLSRLIDNILFLARAEQRIEPVPLDAGHELELLQDYYGTLAEEKGIAISCTGEGTISADPLLFQRAVGNVLSNAIRYTPAGGTITVSIDRADDGAALLTVIDTGIGISADDLPRVFDRFYRSSEARTLNAQGTGLGLAIVRSIMELHRGSVTIDSAPGRGTAVTLRFPLASQ | failed |
| MYLRRFYDEGLAHASYLVGCQETGEACVIDPARDVEPYLLTAKREGLRIVAALETHIHADFVSGAREMADRAGAAICVSDEGPPEWKSEYVKAYPHRLLKDGDELHFGNVRIVVMHTPGHTPEHVSYLLYDGKTSPDVPMALFSGDFVFVGDVGRPDLLERVAGESGSSEALARQMFRSLRKFEALPDHVQVLPAHGAGSACGKALGAVPSSTVGYEKLVNWALQHKDEDAFVQALLAGQPEAPIYFARMKLVNKVGPRLLAELGAPERVDLPPERVRAWREGGVVLDVRPADAFAKRHLAGSLNIPWNKSFVTWAGWLLPADRPIHLLAADAIAPDVIRALRSIGIDDVVDWTDPAAVDRAAPDDVASYANVSPDEVRGALAQQGLWLLDVRNVDEWAGGHLPQAHHIPLSKLAAHIHDVPRDGSVCVYCRTGGRSAIAASLLRAHGVGDVRNMVGGYEAWRGKGFPVEA | not failed |
| MYNREGIQGHILSFIDFSKASTFLDIGCGKGNDLIEISNRTCKEAKLYGVDVKANLIEFAKMQTEGDCRFTFNVYDVEDGLKFEDESIDVIISCNVLECIKNKSKLLHEIHRVLKPDGKIIMAHFDWDTQIFNAFDKNLYRKLIHTYSDWQQPWMNDCDAWMGRRISGVFNETGLFSGNIFTYVVTESEYKEGFRGYSLINEEFKALVEKGIIKNTEFELFKDQIIQLEKTGHYFYSVNLYTYVGQKK | failed |
